Experimental data taken from article doi:10.1101/2023.04.06.535761 (bioRxiv, 2023).

T1: RTCB (un-guanylylated, apo-RTCB) (human, UniProt Q9Y3I0 1-505)
T1 sequence (looked up): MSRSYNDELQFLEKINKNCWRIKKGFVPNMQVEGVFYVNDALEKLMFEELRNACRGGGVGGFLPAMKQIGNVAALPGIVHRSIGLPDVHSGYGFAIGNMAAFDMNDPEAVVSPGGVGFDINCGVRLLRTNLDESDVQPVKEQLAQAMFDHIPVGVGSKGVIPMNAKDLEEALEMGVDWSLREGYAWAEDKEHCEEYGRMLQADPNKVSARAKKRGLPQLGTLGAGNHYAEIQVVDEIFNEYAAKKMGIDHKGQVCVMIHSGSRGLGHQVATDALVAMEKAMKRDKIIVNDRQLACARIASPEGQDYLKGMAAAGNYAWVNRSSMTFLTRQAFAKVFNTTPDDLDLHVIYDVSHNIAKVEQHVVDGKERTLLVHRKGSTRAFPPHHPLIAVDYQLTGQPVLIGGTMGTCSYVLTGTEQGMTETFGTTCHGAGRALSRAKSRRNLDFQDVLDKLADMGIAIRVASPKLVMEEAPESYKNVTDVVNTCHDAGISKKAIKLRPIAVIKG

T2: StrepII-GFP-RTCB (human, UniProt Q9Y3I0 1-505)
T2 sequence (looked up): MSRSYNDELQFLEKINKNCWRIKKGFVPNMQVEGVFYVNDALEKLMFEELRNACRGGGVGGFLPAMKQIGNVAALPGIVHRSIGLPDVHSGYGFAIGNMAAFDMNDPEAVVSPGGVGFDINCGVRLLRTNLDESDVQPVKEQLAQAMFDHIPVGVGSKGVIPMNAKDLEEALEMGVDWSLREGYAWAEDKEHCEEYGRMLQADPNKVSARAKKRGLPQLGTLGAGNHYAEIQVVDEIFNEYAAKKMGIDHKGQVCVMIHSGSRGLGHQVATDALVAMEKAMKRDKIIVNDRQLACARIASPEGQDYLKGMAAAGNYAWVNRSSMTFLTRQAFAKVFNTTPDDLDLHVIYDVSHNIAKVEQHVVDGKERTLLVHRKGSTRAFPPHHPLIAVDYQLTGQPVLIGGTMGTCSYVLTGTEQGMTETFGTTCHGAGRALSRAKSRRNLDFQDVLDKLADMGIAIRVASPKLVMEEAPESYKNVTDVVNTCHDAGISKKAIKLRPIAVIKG


Tests used:
[1] = biological target: T1, RTCB (un-guanylylated, apo-RTCB); assay: cryo-EM structure
StrepII-GFP-RTCB [2] = biological target: T2, StrepII-GFP-RTCB; assay: pull-down
StrepII-GFP-RTCB [3] = biological target: T2, StrepII-GFP-RTCB; assay: pull-down; remark: listed apart in the source

| stoichiometry N [1] | half-life of the complex upon NADH removal (StrepII-GFP-RTCB [2]) | binding result (StrepII-GFP-RTCB [3]) | Binder |
| --- | --- | --- | --- |
| 1 | ~2 min | – | PYROXD1 (wild type) (enzyme, human, UniProt Q8WU10 1-500, looked up) MEAARPPPTAGKFVVVGGGIAGVTCAEQLATHFPSEDILLVTASPVIKAVTNFKQISKILEEFDVEEQSSTMLGKRFPNIKVIESGVKQLKSEEHCIVTEDGNQHVYKKLCLCAGAKPKLICEGNPYVLGIRDTDSAQEFQKQLTKAKRIMIIGNGGIALELVYEIEGCEVIWAIKDKAIGNTFFDAGAAEFLTSKLIAEKSEAKIAHKRTRYTTEGRKKEARSKSKADNVGSALGPDWHEGLNLKGTKEFSHKIHLETMCEVKKIYLQDEFRILKKKSFTFPRDHKSVTADTEMWPVYVELTNEKIYGCDFIVSATGVTPNVEPFLHGNSFDLGEDGGLKVDDHMHTSLPDIYAAGDICTTSWQLSPVWQQMRLWTQARQMGWYAAKCMAAASSGDSIDMDFSFELFAHVTKFFNYKVVLLGKYNAQGLGSDHELMLRCTKGREYIKVVMQNGRMMGAVLIGETDLEETFENLILNQMNLSSYGEDLLDPNIDIEDYFD |
| – | – | binds | PYROXD1 D500A (enzyme, human, UniProt Q8WU10 1-500, looked up) MEAARPPPTAGKFVVVGGGIAGVTCAEQLATHFPSEDILLVTASPVIKAVTNFKQISKILEEFDVEEQSSTMLGKRFPNIKVIESGVKQLKSEEHCIVTEDGNQHVYKKLCLCAGAKPKLICEGNPYVLGIRDTDSAQEFQKQLTKAKRIMIIGNGGIALELVYEIEGCEVIWAIKDKAIGNTFFDAGAAEFLTSKLIAEKSEAKIAHKRTRYTTEGRKKEARSKSKADNVGSALGPDWHEGLNLKGTKEFSHKIHLETMCEVKKIYLQDEFRILKKKSFTFPRDHKSVTADTEMWPVYVELTNEKIYGCDFIVSATGVTPNVEPFLHGNSFDLGEDGGLKVDDHMHTSLPDIYAAGDICTTSWQLSPVWQQMRLWTQARQMGWYAAKCMAAASSGDSIDMDFSFELFAHVTKFFNYKVVLLGKYNAQGLGSDHELMLRCTKGREYIKVVMQNGRMMGAVLIGETDLEETFENLILNQMNLSSYGEDLLDPNIDIEDYFA |
| – | – | binds | PYROXD1 Δ500 (domain or fragment, human, UniProt Q8WU10 1-499, looked up) MEAARPPPTAGKFVVVGGGIAGVTCAEQLATHFPSEDILLVTASPVIKAVTNFKQISKILEEFDVEEQSSTMLGKRFPNIKVIESGVKQLKSEEHCIVTEDGNQHVYKKLCLCAGAKPKLICEGNPYVLGIRDTDSAQEFQKQLTKAKRIMIIGNGGIALELVYEIEGCEVIWAIKDKAIGNTFFDAGAAEFLTSKLIAEKSEAKIAHKRTRYTTEGRKKEARSKSKADNVGSALGPDWHEGLNLKGTKEFSHKIHLETMCEVKKIYLQDEFRILKKKSFTFPRDHKSVTADTEMWPVYVELTNEKIYGCDFIVSATGVTPNVEPFLHGNSFDLGEDGGLKVDDHMHTSLPDIYAAGDICTTSWQLSPVWQQMRLWTQARQMGWYAAKCMAAASSGDSIDMDFSFELFAHVTKFFNYKVVLLGKYNAQGLGSDHELMLRCTKGREYIKVVMQNGRMMGAVLIGETDLEETFENLILNQMNLSSYGEDLLDPNIDIEDYF |
